From patent US20250145729A1 (DENALI THERAPEUTICS, published 2025)

B1: LLS2.33.5 (Fc fusion)
chain: APELLGGPSVFLFPPKPKDTLMISRTPEVTCVVVDVSHEDPEVKFNWYVDGVEVHNAKTKPREEQYNSTYRVVSVLTVLHQDWLNGKEYKCKVSNKALPAPIEKTISKAKGQPREPQVYTLPPSRDELTKNQVSLTCLVKGFYPSDIAVQWSSQYELENNYKTTPPVLDSDGSFFLYSKLTVDKSRWQQGNVFACNVWHEALHNHYTFKNLSLSPGK
notes: Fc part only; also called LLB2.33.5
B2: LLS2.33.8 (Fc fusion)
chain: APELLGGPSVFLFPPKPKDTLMISRTPEVTCVVVDVSHEDPEVKFNWYVDGVEVHNAKTKPREEQYNSTYRVVSVLTVLHQDWLNGKEYKCKVSNKALPAPIEKTISKAKGQPREPQVYTLPPSRDELTKNQVSLTCLVKGFYPSDIAVAWNSKFRLENNYKTTPPVLDSDGSFFLYSKLTVDKSRWQQGNLFACNVWHEALHNHYTFKNLSLSPGK
notes: Fc part only; also called LLB2.33.8
B3: LLS2.43.5 (Fc fusion)
chain: APELLGGPSVFLFPPKPKDTLMISRTPEVTCVVVDVSHEDPEVKFNWYVDGVEVHNAKTKPREEQYNSTYRVVSVLTVLHQDWLNGKEYKCKVSNKALPAPIEKTISKAKGQPREPQVYTLPPSRDELTKNQVSLTCLVKGFYPSDIAVMWNSQYELENNYKTTPPVLDSDGSFFLYSKLTVDKSRWQQGNVFACNVHHEALHNHYTFKNLSLSPGK
notes: Fc part only; also called LLB2.43.5
B4: LLS2.C.4 (Fc fusion)
chain: APELLGGPSVFLFPPKPKDTLMISRTPEVTCVVVDVSHEDPEVKFNWYVDGVEVHNAKTKPREEQYNSTYRVVSVLTVLHQDWLNGKEYKCKVSNKALPAPIEKTISKAKGQPREPQVYTLPPSRDELTKNQVSLTCLVKGFYPSDIAVAWNSRFELENNYKTTPPVLDSDGSFFLYSKLTVDKSRWQQGNIFACNVWHEALHNHYTFKNLSLSPGK
notes: Fc part only; also called LLB2.C.4
B5: LLS2.C.15 (Fc fusion)
chain: APELLGGPSVFLFPPKPKDTLMISRTPEVTCVVVDVSHEDPEVKFNWYVDGVEVHNAKTKPREEQYNSTYRVVSVLTVLHQDWLNGKEYKCKVSNKALPAPIEKTISKAKGQPREPQVYTLPPSRDELTKNQVSLTCLVKGFYPSDIAVKWNSRFQLENNYKTTPPVLDSDGSFFLYSKLTVDKSRWQQGNLFACNVWHEALHNHYTFKNLSLSPGK
notes: Fc part only; also called LLB2.C.15
B6: 6.5.11.5.42.2.d1 (Fc fusion)
chain: APELLGGPSVFLFPPKPKDTLMISRTPEVTCVVVDVSHEDPEVKFNWYVDGVEVHNAKTKPREEQYNSTYRVVSVLTVLHQDWLNGKEYKCKVSNKALPAPIEKTISKAKGQPREPQVYTLPPSRDELTKNQVSLTCLVKGFYPSDIAVEWFSNGSKETNYKTTPPVLDSDGSFFLYSKLTVDKSRWQQGNLFACEVMHEALHNHYTYKLLSLSPGK
B7: 6.5.11.5.42.2.d2 (Fc fusion)
chain: APELLGGPSVFLFPPKPKDTLMISRTPEVTCVVVDVSHEDPEVKFNWYVDGVEVHNAKTKPREEQYNSTYRVVSVLTVLHQDWLNGKEYKCKVSNKALPAPIEKTISKAKGQPREPQVYTLPPSRDELTKNQVSLTCLVKGFYPSDIAVEWFSDGQKETNYKTTPPVLDSDGSFFLYSKLTVDKSRWQQGNLFACEVMHEALHNHYTYKLLSLSPGK
B8: 6.5.11.5.42.2.d3 (Fc fusion)
chain: APELLGGPSVFLFPPKPKDTLMISRTPEVTCVVVDVSHEDPEVKFNWYVDGVEVHNAKTKPREEQYNSTYRVVSVLTVLHQDWLNGKEYKCKVSNKALPAPIEKTISKAKGQPREPQVYTLPPSRDELTKNQVSLTCLVKGFYPSDIAVEWFSDGSPETNYKTTPPVLDSDGSFFLYSKLTVDKSRWQQGNLFACEVMHEALHNHYTYKLLSLSPGK
B9: 6.5.11.5.42.2.d4 (Fc fusion)
chain: APELLGGPSVFLFPPKPKDTLMISRTPEVTCVVVDVSHEDPEVKFNWYVDGVEVHNAKTKPREEQYNSTYRVVSVLTVLHQDWLNGKEYKCKVSNKALPAPIEKTISKAKGQPREPQVYTLPPSRDELTKNQVSLTCLVKGFYPSDIAVEWFSDGGKETNYKTTPPVLDSDGSFFLYSKLTVDKSRWQQGNLFACEVMHEALHNHYTYKLLSLSPGK
B10: 6.5.11.5.42.2.d6 (Fc fusion)
chain: APELLGGPSVFLFPPKPKDTLMISRTPEVTCVVVDVSHEDPEVKFNWYVDGVEVHNAKTKPREEQYNSTYRVVSVLTVLHQDWLNGKEYKCKVSNKALPAPIEKTISKAKGQPREPQVYTLPPSRDELTKNQVSLTCLVKGFYPSDIAVEWFSFGSKETNYKTTPPVLDSDGSFFLYSKLTVDKSRWQQGNLFACEVMHEALHNHYTYKLLSLSPGK
B11: 6.5.11.5.42.2.d7 (Fc fusion)
chain: APELLGGPSVFLFPPKPKDTLMISRTPEVTCVVVDVSHEDPEVKFNWYVDGVEVHNAKTKPREEQYNSTYRVVSVLTVLHQDWLNGKEYKCKVSNKALPAPIEKTISKAKGQPREPQVYTLPPSRDELTKNQVSLTCLVKGFYPSDIAVEWFSAGSKETNYKTTPPVLDSDGSFFLYSKLTVDKSRWQQGNLFACEVMHEALHNHYTYKLLSLSPGK
B12: 6.5.11.5.42.2.d8 (Fc fusion)
chain: APELLGGPSVFLFPPKPKDTLMISRTPEVTCVVVDVSHEDPEVKFNWYVDGVEVHNAKTKPREEQYNSTYRVVSVLTVLHQDWLNGKEYKCKVSNKALPAPIEKTISKAKGQPREPQVYTLPPSRDELTKNQVSLTCLVKGFYPSDIAVEWFSDASKETNYKTTPPVLDSDGSFFLYSKLTVDKSRWQQGNLFACEVMHEALHNHYTYKLLSLSPGK
B13: 6.5.11.5.42.2.d9 (Fc fusion)
chain: APELLGGPSVFLFPPKPKDTLMISRTPEVTCVVVDVSHEDPEVKFNWYVDGVEVHNAKTKPREEQYNSTYRVVSVLTVLHQDWLNGKEYKCKVSNKALPAPIEKTISKAKGQPREPQVYTLPPSRDELTKNQVSLTCLVKGFYPSDIAVEWFSDGAKETNYKTTPPVLDSDGSFFLYSKLTVDKSRWQQGNLFACEVMHEALHNHYTYKLLSLSPGK
B14: 6.5.11.5.42.2.d10 (Fc fusion)
chain: APELLGGPSVFLFPPKPKDTLMISRTPEVTCVVVDVSHEDPEVKFNWYVDGVEVHNAKTKPREEQYNSTYRVVSVLTVLHQDWLNGKEYKCKVSNKALPAPIEKTISKAKGQPREPQVYTLPPSRDELTKNQVSLTCLVKGFYPSDIAVEWFSDGSTETNYKTTPPVLDSDGSFFLYSKLTVDKSRWQQGNLFACEVMHEALHNHYTYKLLSLSPGK
B15: 6.5.11.5.42.2.d11 (Fc fusion)
chain: APELLGGPSVFLFPPKPKDTLMISRTPEVTCVVVDVSHEDPEVKFNWYVDGVEVHNAKTKPREEQYNSTYRVVSVLTVLHQDWLNGKEYKCKVSNKALPAPIEKTISKAKGQPREPQVYTLPPSRDELTKNQVSLTCLVKGFYPSDIAVEWFSDGSKESNYKTTPPVLDSDGSFFLYSKLTVDKSRWQQGNLFACEVMHEALHNHYTYKLLSLSPGK
B16: 6.5.11.5.42.2.d12 (Fc fusion)
chain: APELLGGPSVFLFPPKPKDTLMISRTPEVTCVVVDVSHEDPEVKFNWYVDGVEVHNAKTKPREEQYNSTYRVVSVLTVLHQDWLNGKEYKCKVSNKALPAPIEKTISKAKGQPREPQVYTLPPSRDELTKNQVSLTCLVKGFYPSDIAVEWFSDGSPENNYKTTPPVLDSDGSFFLYSKLTVDKSRWQQGNLFACEVMHEALHNHYTYKLLSLSPGK
B17: 6.5.11.5.42.2.d13 (Fc fusion)
chain: APELLGGPSVFLFPPKPKDTLMISRTPEVTCVVVDVSHEDPEVKFNWYVDGVEVHNAKTKPREEQYNSTYRVVSVLTVLHQDWLNGKEYKCKVSNKALPAPIEKTISKAKGQPREPQVYTLPPSRDELTKNQVSLTCLVKGFYPSDIAVEWFSDGSPENNYKTTPPVLDSDGSFFLYSKLTVDKSRWQQGNVFACEVMHEALHNHYTYKLLSLSPGK
B18: 6.5.11.5.42.2.d14 (Fc fusion)
chain: APELLGGPSVFLFPPKPKDTLMISRTPEVTCVVVDVSHEDPEVKFNWYVDGVEVHNAKTKPREEQYNSTYRVVSVLTVLHQDWLNGKEYKCKVSNKALPAPIEKTISKAKGQPREPQVYTLPPSRDELTKNQVSLTCLVKGFYPSDIAVEWFSNGQKETNYKTTPPVLDSDGSFFLYSKLTVDKSRWQQGNLFACEVMHEALHNHYTYKLLSLSPGK
B19: 6.5.11.5.42.2.d15 (Fc fusion)
chain: APELLGGPSVFLFPPKPKDTLMISRTPEVTCVVVDVSHEDPEVKFNWYVDGVEVHNAKTKPREEQYNSTYRVVSVLTVLHQDWLNGKEYKCKVSNKALPAPIEKTISKAKGQPREPQVYTLPPSRDELTKNQVSLTCLVKGFYPSDIAVEWFSFGQKETNYKTTPPVLDSDGSFFLYSKLTVDKSRWQQGNLFACEVMHEALHNHYTYKLLSLSPGK

Key:
human CD98hc = target: T1, human CD98hc (human, UniProt P08195 109-529); test: SPR (Biacore)
T1 construct: also called huCD98hc; CD98 heavy chain
T1 sequence: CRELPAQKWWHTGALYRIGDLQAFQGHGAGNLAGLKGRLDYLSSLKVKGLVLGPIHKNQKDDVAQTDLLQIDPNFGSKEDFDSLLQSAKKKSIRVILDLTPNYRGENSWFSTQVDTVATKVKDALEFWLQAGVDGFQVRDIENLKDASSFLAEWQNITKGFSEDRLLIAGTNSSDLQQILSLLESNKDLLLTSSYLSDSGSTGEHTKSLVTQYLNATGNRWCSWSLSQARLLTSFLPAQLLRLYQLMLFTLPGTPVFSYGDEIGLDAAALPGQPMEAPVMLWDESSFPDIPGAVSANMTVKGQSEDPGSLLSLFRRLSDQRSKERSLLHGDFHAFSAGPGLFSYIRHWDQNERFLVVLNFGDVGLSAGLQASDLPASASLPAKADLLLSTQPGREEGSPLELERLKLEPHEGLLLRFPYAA
Procedure, shortened: (§1)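 Engineered Fc polypeptides, made as Fc-Fab fusions with anti-BACE1 Fabs, were assessed for Kd toward CD98hc. Measurements were taken by surface plasmon resonance with a Biacore instrument, in a bivalent format or in a monovalent knob/hole format whose CD98hc-binding site sat on the knob chain alone.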

cyno CD98hc = target: T2, cyno CD98hc (cynomolgus monkey); test: SPR (Biacore)
T2 construct: also called cynomolgus CD98hc; cyCD98hc
Procedure, shortened: as §1

[1] = target: T3, circularly permuted human TfR apical domain (human); test: Biacore SPR
T3 construct: TfR residues 326-379 stand N-terminal to 194-296, loop 297-325 deleted; also called huTfR Apical Domain
T3 chain: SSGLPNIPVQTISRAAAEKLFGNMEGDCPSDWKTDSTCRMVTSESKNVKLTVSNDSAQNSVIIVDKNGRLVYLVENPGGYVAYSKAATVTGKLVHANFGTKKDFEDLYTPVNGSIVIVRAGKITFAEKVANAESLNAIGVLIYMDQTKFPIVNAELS

Row | Binder | Kd [1] [µM] | other results
1 | B1 | – | Kd (human CD98hc): 1.7 µM; Kd (cyno CD98hc): 6.9 µM
2 | B2 | – | Kd (human CD98hc): 2.2 µM; Kd (cyno CD98hc): 8.2 µM
3 | B3 | – | Kd (human CD98hc): 1.2 µM; Kd (cyno CD98hc): 5.9 µM
4 | B4 | – | Kd (human CD98hc): 0.7 µM; Kd (cyno CD98hc): 2.7 µM
5 | B5 | – | Kd (human CD98hc): 0.62 µM; Kd (cyno CD98hc): 2.2 µM
6 | B6 | 3.6 | –
7 | B7 | 3.5 | –
8 | B8 | 3.5 | –
9 | B9 | 8.7 | –
10 | B10 | 24 | –
11 | B11 | 29 | –
12 | B12 | 4.4 | –
13 | B13 | 2 | –
14 | B14 | 1.8 | –
15 | B15 | 1.8 | –
16 | B16 | 4.9 | –
17 | B17 | – | binding result [1]: no binding
18 | B18 | 9.4 | –
19 | B19 | 2 | –
